Test results from patent US20230399641A1.
Like-named read-outs stand apart in the source and are kept apart here.

Experiments:
[1] = molecular target: full-length human ACE2 mutant K353del over-expressed on hACE2-KO 293FT cells (human) (UniProt Q9BYF1)
[2] = molecular target: full-length human ACE2 mutant AKA/K353del over-expressed on hACE2-KO 293FT cells (human) (UniProt Q9BYF1)
[3] = molecular target: full-length human ACE2 mutant AAA/K353del over-expressed on hACE2-KO 293FT cells (human) (UniProt Q9BYF1)
[4] = molecular target: full-length human ACE2 mutant AKA/K353del over-expressed on hACE2-KO 293FT cells (human) (UniProt Q9BYF1); remark: listed apart in the source
[5] = molecular target: full-length human ACE2 mutant AAA/K353del over-expressed on hACE2-KO 293FT cells (human) (UniProt Q9BYF1); remark: listed apart in the source
[6] = molecular target: full-length human ACE2 mutant AKA/K353del over-expressed on hACE2-KO 293FT cells (human) (UniProt Q9BYF1); remark: listed apart in the source
[7] = molecular target: full-length human ACE2 mutant K353del over-expressed on hACE2-KO 293FT cells (human) (UniProt Q9BYF1); remark: listed apart in the source
[8] = molecular target: full-length human ACE2 mutant AAA/K353del over-expressed on hACE2-KO 293FT cells (human) (UniProt Q9BYF1); remark: listed apart in the source
[9] = molecular target: full-length human ACE2 mutant AKA/K353del over-expressed on hACE2-KO 293FT cells (human) (UniProt Q9BYF1); remark: listed apart in the source

Substance	% cells stained positive [1]	% of cells in the PE-positive (RBD-bound) gate [2]	% cells stained positive [3]	% cells stained positive [4]	% of cells in the PE-positive (RBD-bound) gate (No hACE2)	% of cells in the PE-positive (RBD-bound) gate [5]	% of cells in the PE-positive (RBD-bound) gate [6]	% of cells in the PE-positive (RBD-bound) gate [7]	% of cells in the PE-positive (RBD-bound) gate [8]	% of cells in the PE-positive (RBD-bound) gate [9]
receptor binding domain (RBD) of wildtype SARS-CoV-2 spike (residues 319-541) (from UniProt P0DTC2 319-541) (ligand)	1.8%	0.56%								
receptor binding domain (RBD) of B.1.1.7 SARS-CoV-2 spike (residues 319-541) (from UniProt P0DTC2 319-541) (ligand)	1.4%		1.6%	1.6%						
receptor binding domain (RBD) of B.1.351 SARS-CoV-2 spike (residues 319-541) (from UniProt P0DTC2 319-541) (ligand)	3.5%		3.5%	4%	0.41%	3.76%	3.48%	5.07%		
receptor binding domain (RBD) of P.1 SARS-CoV-2 spike (residues 319-541) (from UniProt P0DTC2 319-541) (ligand)	2.3%		2.6%	2.9%					2.03%	1.82%
